Like-named read-outs stand apart in the source and are kept apart here.
Settings: for Duration of Neutropenia in Neutropenic Cycles, Median / Duration of Neutropenia in Neutropenic Cycles, Range / Nadirs in Neutropenic Cycles, Median / Nadirs in Neutropenic Cycles, Range / Duration of Neutropenia in Neutropenic Cycles, Mean / Nadirs in Neutropenic Cycles, Mean / Day of Onset of Neutropenia in Neutropenic Cycles, Median / Day of Onset of Neutropenia in Neutropenic Cycles, Range / Day of Onset of Neutropenia in Neutropenic Cycles, Mean / Nadir (all cycles), Median / Nadir (all cycles), Range / Nadir (all cycles), Mean: taxol 250 mg/m^2/21 days
Description: A total of 47 patients were included in this study. All patients had recurrent advanced stage epithelial ovarian cancer confirmed on histologic review at the Laboratory of Pathology, National Cancer Institute (NCI). Borderline, mixed, and germ cell histologies were excluded.
Pretreatment evaluation consisted of a physical examination, laboratory studies with CA-125, radiographic evaluation by CT scan, baseline electromyogram with nerve conduction velocity studies (EMG/NCV), creatinine clearance, chest radiograph, and EKG. On-study staging was completed within two weeks of starting therapy. Physical examination and laboratory evaluations were repeated with every cycle, except for CBC which was evaluated twice weekly. Patients underwent restaging every two cycles (i.e., every 6 weeks), which included the repetition of any radiographic studies that were abnormal upon entry. EMG/NCV studies were repeated as indicated to determine the presence of any progressive neurologic toxicity.
The G-CSF was supplied to the Division of Cancer Treatment by Amgen, Inc. (Thousand Oaks, Calif.). This G-CSF administration continued until the absolute granulocyte count of the patient was greater than 1500/μl for two consecutive days after the nadir (i.e., the total count for the two days was at least 3000/μl ) or until the total white blood cell count was greater than 30,000/μl. Patients with responding disease or stable disease continued on the study and were reevaluated at two cycle intervals.
Patients manifesting second or third degree heart block had remaining cycles given in the intensive care unit with appropriate interventions. Antiemetics were given as needed.
More specifically, this was undertaken by increasing the dose of G-CSF administered on the next treatment cycle.
The particulars pertaining to the flexible G-CSF dosage regimen are as follows. […] The dose of G-CSF was reduced by 5 μg/kg/day if severe bone pain occurred at these higher G-CSF dosage levels, i.e., at levels greater than or equal to 10 μg/kg/day.

B1: G-CSF: granulocyte colony-stimulating factor, available from Amgen, Inc. (protein, UniProt P09919 31-207, looked up)
Granulocyte …: TPLGPASSLPQSFLLKCLEQVRKIQGDGAALQEKLVSECATYKLCHPEELVLLGHSLGIPWAPLSSCPSQALQLAGCLSQLHSGLFLYQGLLQALEGISPELGPTLDTLQLDVADFATTIWQQMEELGMAPALQPTQGAMPAFASAFQRRAGGVLVASHLQSFLEVSYRVLRHLAQP
Duration of Neutropenia in Neutropenic Cycles, Median (10 μg/kg G-CSF, 49 cycles): 1 days | Duration of Neutropenia in Neutropenic Cycles, Range (10 μg/kg G-CSF, 49 cycles): 1 to 4 days | Nadirs in Neutropenic Cycles, Median (10 μg/kg G-CSF, 49 cycles): 162 | Nadirs in Neutropenic Cycles, Range (10 μg/kg G-CSF, 49 cycles): 0-494 | Duration of Neutropenia in Neutropenic Cycles, Mean (10 μg/kg G-CSF, 49 cycles, ± 0.7 on wrapped line): 1 days | Nadirs in Neutropenic Cycles, Mean (10 μg/kg G-CSF, 49 cycles, ± 158 on wrapped line): 178 | Day of Onset of Neutropenia in Neutropenic Cycles, Median (10 μg/kg G-CSF, 54 cycles): 7 days | Day of Onset of Neutropenia in Neutropenic Cycles, Range (10 μg/kg G-CSF, 54 cycles): 5 to 9 days | Day of Onset of Neutropenia in Neutropenic Cycles, Mean (10 μg/kg G-CSF, 54 cycles, ± 0.8 on wrapped line): 7 days | Nadir (all cycles), Median (10 μg/kg G-CSF, 130 cycles): 865 | Nadir (all cycles), Range (10 μg/kg G-CSF, 130 cycles): 0-6232 | Nadir (all cycles), Mean (10 μg/kg G-CSF, 130 cycles, ± 1636 on wrapped line): 1341 | Day of Onset of Neutropenia in Neutropenic Cycles, Median (20 μg/kg G-CSF, 20 cycles): 7 days | Day of Onset of Neutropenia in Neutropenic Cycles, Range (20 μg/kg G-CSF, 20 cycles): 6 to 11 days | Duration of Neutropenia in Neutropenic Cycles, Median (20 μg/kg G-CSF, 20 cycles): 1 days | Duration of Neutropenia in Neutropenic Cycles, Range (20 μg/kg G-CSF, 20 cycles): 1 to 5 days | Nadirs in Neutropenic Cycles, Median (20 μg/kg G-CSF, 20 cycles): 191 | Nadirs in Neutropenic Cycles, Range (20 μg/kg G-CSF, 20 cycles): 0-493 | Duration of Neutropenia in Neutropenic Cycles, Mean (20 μg/kg G-CSF, 20 cycles, ± 0.9 on wrapped line): 1 days | Day of Onset of Neutropenia in Neutropenic Cycles, Mean (20 μg/kg G-CSF, 20 cycles, ± 1.1 on wrapped line): 7 days | Nadirs in Neutropenic Cycles, Mean (20 μg/kg G-CSF, 20 cycles, ± 155 on wrapped line): 200 | Nadir (all cycles), Median (20 μg/kg G-CSF, 42 cycles): 626 | Nadir (all cycles), Range (20 μg/kg G-CSF, 42 cycles): 0-6536 | Nadir (all cycles), Mean (20 μg/kg G-CSF, 42 cycles, ± 1430 on wrapped line): 1204 | Patients in whom the G-CSF dose is poorly tolerated (in vivo): about 5% | Patients whose G-CSF doses were modified for bone pain (phase II): two | Bone Pain, G-CSF DR (dose reduction) (phase II, 47 patients): 3 (6) No. (%)

Source: USRE38424E1 (The United States of America as represented by the …, priority 1994, dated 2004)
